These results are taken from patent US20030086946A1.

The target of the assay is purified human folate receptor (hFR) (human) (UniProt P15328).
Sequence of UniProt P15328 (P15328 25-234): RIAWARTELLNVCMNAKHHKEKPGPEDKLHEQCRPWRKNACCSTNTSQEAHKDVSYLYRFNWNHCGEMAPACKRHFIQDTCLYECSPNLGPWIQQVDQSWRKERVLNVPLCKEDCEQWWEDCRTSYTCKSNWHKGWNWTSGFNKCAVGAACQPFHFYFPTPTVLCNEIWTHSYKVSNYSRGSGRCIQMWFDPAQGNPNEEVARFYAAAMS

Turning to “wild-type (native) Clostridium septicum alpha toxin”, the hFR Binding (percent of wild type) (% of wild type) was determined as 100.
